Measured values published in the supplement of paper PMC9170038.

System: MS2 coat protein
Test: apparent KD of MS2 coat protein; higher = weaker reporter binding
Conditions: Eterna round: R107
Outline: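 Apparent KD stands for the median, per design, of fits to normalised cluster binding curves. The curves came from titrating on-chip-transcribed RNA switches on Illumina sequencing clusters with SNAP-549-labelled MS2 coat protein, twofold from 0.7 or 1.5 nM to 3 µM. Buffer was 100 mM Tris-HCl pH 7.5, 80 mM KCl, 4 mM MgCl2, without or with constant ligand.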

[1] = input ligand: theophylline 20 uM
[2] = input ligand: theophylline 2 mM
[3] = input ligand: tryptophan 2.4 mM

Row | Sequence | apparent KD of MS2 coat protein (input ligand: arginine 13.2 mM) | apparent KD of MS2 coat protein [1] | apparent KD of MS2 coat protein [2] | apparent KD of MS2 coat protein [3] | apparent KD of MS2 coat protein (input ligand: none)
1 | GCAUCCUAGUCGGCCGCCACUGCAAUUGUAAUACUGCUACAUGAGGAUCACCCAUGUCCAUGUAGCAGGACCGGGACUAGGAUGC [SS Tryp B #16] | 0.142 µM | 0.728 µM | 1.24 µM | – | –
2 | GCAUCCUAGUCGGCCGCCACUGCACGAUCAGUGGCAGAUCGUCAACAUGAGGAUCACCCAUGUAGCAGGACCGGGACUAGGAUGC [(Trp1)-(TM)''-(TM)'-(Ms2)-(Trp2)_Design3] | 0.0185 µM | 0.0219 µM | 0.0209 µM | – | –
3 | GCAUUAUUAUUAGAUACCAGUGUCGCAGGCGACAUGAGGAUCACCCAUGUAAAGUUACUCCACCCUUGGCAGCUAGUUCGACUAC [theeternabot_sameState_MS2_Theo_B_21] | 0.056 µM | 0.124 µM | – | 0.101 µM | –
4 | GCCAUCGGCGAAAGCCGAUGGUAUACAGAAGGAGCGCACGAAAGUGCAGGUAGGUCGCUGAACAUGAGGAUCACCCAUGUAAUAA [#29 Same State - Arginine A] | 0.0196 µM | 0.0249 µM | 0.0229 µM | 0.0194 µM | 0.0202 µM
5 | GCCCUUGGCAGCGAUACCAGCCAAAAUUAAAAUAAACCUCUACAUGAGGAUCACCCAUGUGGCCCUUGGCAGCGAUACCAGCAAA [#ReversedDoubbleAptamer 1] | 0.0337 µM | 0.0497 µM | – | 0.0435 µM | –
6 | GCCGGGCCUUCGGCCGCCACUGAGAGAGUCGUGUGAACAUGAGGAUCACCCAUGUAAUAUAUAUACAGGACCGGGAGGGCCCGGC [4.V] | 0.0126 µM | 0.0178 µM | 0.0149 µM | 0.0104 µM | 0.0163 µM
7 | GCCUCAUGUAGAAGGAGCGUCAGAAGCUACAGACAUGAGGAUCACCCAUGUUAGUUGAUCUGACAGGUAGGUCGCUACAGCAGGA [Arg B SS t7] | 0.0267 µM | 0.0449 µM | 0.0411 µM | 0.0349 µM | 0.037 µM
8 | GCGAUACAUGAGGAUCACCCAUGUGCAGAUACCAGAGGUGCAUGCCUCCCUUGGCAGCUGCGACGCUCUGGCAUCUUGUGGGAUG [Same State Theophylline A GF20] | 0.0376 µM | 0.0864 µM | – | 0.0569 µM | –
9 | GCGAUGGAGCGAAGGAGCGGCUAAAUGUAACACAUGAGGAUCACCCAUGUUCCAAGAUGUGGCCAGGUAGGUCGCGCUCCAUCGC [SSAB NP+V+V2 #15] | 0.0618 µM | 0.229 µM | 0.185 µM | 0.144 µM | 0.175 µM
10 | GCGAUGGAGCGAAGGAGCGGCUGUGACUACAUGAGGAUCACCCAUGUACGAUCGUAAGGUAGCCAGGUAGGUCGCGCUCCAUCGC [SSAB NP+V+V2 #17] | 0.0187 µM | 0.0418 µM | 0.0418 µM | 0.0262 µM | 0.0293 µM
11 | GCGGACAUGAGGAUCACCCAUGUAAAUCCUCGAGGACCGGUACGGCCGCCACUCGAACGAGUGGCACGCGAGUGCGCACUCGCGU [aDa] | 0.0218 µM | 0.0384 µM | 0.0297 µM | – | –
12 | GCGGUGGUCGGAAGGAGCGACAUGAGGAUCACCCAUGUCUCCCGUUAUGGGAGUUCCUUAGGUCAGGUAGGUCGCCGACUGCCGC [#1 Exclusion - Arginine B Attempt #21 (Inspired by Omei)] | 0.105 µM | 0.234 µM | 0.26 µM | 0.227 µM | 0.195 µM
13 | GCGUCGGUCGGAAGGAGCGACAUGAGGAUCACCCAUGUCUCCCGUUAUGGGAGUUCCUUAGGUCAGGUAGGUCGCCGACGGACGC [#1 Exclusion - Arginine B Attempt #19 (Inspired by Omei)] | 0.0638 µM | 0.19 µM | 0.216 µM | 0.196 µM | 0.17 µM
14 | GCUACACAGGACCGUACUAAGGAUUCGCCUCGAGGACCGGUACGGCCGCCACUCGUUGCGCGACAUGAGGAUCACCCAUGUGUUC [theeternabot_exclusion_MS2_Trp_A_33] | 0.0311 µM | 0.0483 µM | 0.0507 µM | – | –
15 | GCUACAUGAGGAUCACCCAUGUAUGCGAGCCGAGGACCGGUACGGCCGCCACUCGCUUAACAUGAGGAUCACCCAUGUUUCUCGG [SSTA DOUBLE!!! :-D #16] | 0.0699 µM | 0.193 µM | 0.254 µM | – | –
16 | GCUACAUGAGGAUCACCCAUGUAUGCGAGUCGAGGACCGGUACGGCCGCCACUCGCUUAACAUGAGGAUCACCCAUGUUACUCGC [SSTA DOUBLE!!! :-D #19] | 0.056 µM | 0.106 µM | 0.0887 µM | – | –
17 | GCUAGGUCUACGGCCGCCACUAGACGUGGGUAAGACAUGAGGAUCACCCAUGUACUACAGGCGGAUAGGACCGGGUAGACCUAGC [SSTB NP+V+V2 #13 +-Same Structure] | 0.0693 µM | 0.159 µM | 0.101 µM | – | –
18 | GCUGCUUUGGGAAGGAGCGCUGCGUUAUCAUGUUGGACAUGAGGAUCACCCAUGUAAAUGUAGCAGGUAGGUCGCUUAGGGCAGC [EAP NP+V+V2 #15] | 0.0408 µM | 0.046 µM | 0.0297 µM | 0.0371 µM | 0.0318 µM
19 | GCUGGGUGCGCAAGGACCUGGCGUUGCGAUACCAGCACGGUAACGUGCCCUUGGCAGCGCACAUGAGGAUCACCCAUGUGGUGCG [#1 Exclusion - Theophylline A Attempt #21 (HarryS)] | 0.0187 µM | 0.0458 µM | – | 0.0225 µM | –

Row | Sequence | apparent KD of MS2 coat protein (input ligand: arginine 13.2 mM) | apparent KD of MS2 coat protein [1] | apparent KD of MS2 coat protein [2] | apparent KD of MS2 coat protein [3] | apparent KD of MS2 coat protein (input ligand: none)
20 | GCUGUAAGUGCAGAUACCAGCGUGUUAUAUUUCUAAUGACAUGAGGAUCACCCAUGUAAAUGCCCUUGGCAGCUGCACUUACAGC [SSTHB #7] | 0.0132 µM | 0.0167 µM | – | 0.0162 µM | –
21 | GCUUGGGUCGCACGGCCCUGGCGGUGCGAUACCAGCACGGUAACGUGCCCUUGGCAGCGCACAUGAGGAUCACCCAUGUGGUGCG [#1 Exclusion - Theophylline A Attempt #23 (HarryS)] | 0.00942 µM | 0.0256 µM | 0.264 µM | 0.0124 µM | 0.0126 µM
22 | GGAACGAUCACUUCUUUAUCUAAGGCGGAUACCAGUCCUCGGUUUGACCCUUGGCAGCCGACAACAUGAGGAUCACCCAUGUUCU [theeternabot_exclusion_MS2_Theo_A_25] | 0.0125 µM | 0.0189 µM | – | 0.0156 µM | –
23 | GGAAUUAAGACUGAUACCAGUCAAGAUAAUCAUAAGAAUAAACAUGAGGAUCACCCAUGUGACCCUUGGCAGCAGACUAAUACCG [Same State Theophylline B GF 26] | 0.0386 µM | 0.0511 µM | – | 0.0392 µM | –
24 | GGACUAACCAGAAGGAGCGACGCAAGCAGAAACUGCAAUCCUCCGCACGAGGAUCACCCGUGUCAGGUAGGUCGCUGGUUAGUCG [ArgBX 28] | 0.0216 µM | 0.0384 µM | 0.0301 µM | 0.0292 µM | 0.0282 µM
25 | GGACUAACCUGAAGGAGCGACACGCACAAAGUGCAAAUUCCUCCACACGAGGAUCACCCGUGUCAGGUAGGUCGCAGGUUAGUCG [ArgBX 28] | 0.0243 µM | 0.0308 µM | 0.0237 µM | 0.0291 µM | 0.023 µM
26 | GGAGCUACGUCGGCCGCCACUAGCGGUAAUUACGUGUACAUGAGGAUCACCCAUGUAAUAUGGACUAGGACCGGGACGUAGCUCC [Salmon] | 0.0106 µM | 0.0218 µM | 0.0137 µM | 0.0122 µM | 0.0133 µM
27 | GGAGUCGGCACGGCCGCCACUGCGGUGGUGUGACAUGAGGAUCACCCAUGUUGUCAUGCGGCCCUUAGGACCGGGUGGCGGUUCC [#1 Exclusion - Tryptophan B Attempt #22 (HarryS)] | 0.0284 µM | 0.0761 µM | 0.0826 µM | – | 0.0587 µM
28 | GGAUAGGACACGGCCGCCACUACCUAGGAUACUAGCAACAUUUGGGUACAUGAGGAUCACCCAUGUAGGACCGGGUGUCCUAUCG | 0.0319 µM | 0.0342 µM | 0.0284 µM | 0.124 µM | 0.0253 µM
29 | GGAUAGGACAGAAGGAGCGACAUGGCGACGAAAGUCGAAACUUCACAUGAGGAUCACCCAUGUCAGGUAGGUCGCUGUCCUAUCG [ArgXB 7 #MS2Gate #StaticStem] | 0.0488 µM | 0.0638 µM | 0.0557 µM | 0.0471 µM | 0.0489 µM
30 | GGCAAGCGAGACAUGAGGAUCACCCAUGUUCGAGGACCGGUACGGCCGCCACUCGGUGGACUCAUGGUAAAGCCGGUGAGCCAAA [AK 1 SS Trypt (A)] | 0.0274 µM | 0.0448 µM | 0.038 µM | – | –
31 | GGCACAUGUGGAAGGAGCGUCGUACGAGCUACAUGAGGAUCACCCAUGUCGGUUAGUGUCCGACAGGUAGGUCGCCACAUUUAAC [Isiser] | 0.114 µM | 0.235 µM | 0.551 µM | 0.195 µM | 0.374 µM
32 | GGCACCAGGAGAAGGAGCGUGAAGACAUGAGGAUCACCCAUGUAGAGGCCCGGACCGGGUUCGCAGGUAGGUCGCUCCUGGUGCC [#1 Same State - Arginine B Attempt #15 (HarryS)] | 0.01 µM | 0.0179 µM | 0.023 µM | 0.0169 µM | 0.0156 µM
33 | GGCCUAUGGCGCGAUACCAGCUUGAGUGUACUGGCCAGGUACAUGAGGAUCACCCAUGUAAGCCCUUGGCAGCGCGUCAUAGGCC [#1 Exclusion - Theophylline B Attempt #23 (HarryS)] | 0.00891 µM | 0.0179 µM | 0.0322 µM | 0.00974 µM | 0.00995 µM
34 | GGCUACAUGAGGAUCACCCAUGUUUCUCGUCGAGGACCGGUACGGCCGCCACUCGUUGUUGGGACUCAGUAUCAGUCGUUAGUUU [theeternabot_sameState_MS2_Trp_A_36] | 0.0238 µM | 0.0343 µM | 0.0402 µM | – | –
35 | GGCUCCAGCCGAAGGAGCGCUAGAAGGUGACAUGAGGAUCACCCAUGUGUGUGAUGUGGCUAGCAGGUAGGUCGCGGAGGAGCUU [Exclusion - Arginine B (Freestyle 19)] | 0.0625 µM | 0.108 µM | 0.0906 µM | 0.0711 µM | 0.0645 µM
36 | GGGAAAGGAGAAGAUACCAGCCGCCUCACAAGUCUACACUACAUGAGGAUCACCCAUGUGGGCCCUUGGCAGCUUGACCGCGAAA [theeternabot_exclusion_MS2_Theo_B_20] | 0.0232 µM | 0.0477 µM | 0.042 µM | 0.0393 µM | 0.0274 µM
37 | GGGAAUGAACGUGAUACCAGAGAUCCGGUCUCCGUCAAUAUACAUGAGGAUCACCCAUGUCUCCCUUGGCAGCACCGUCAUCGGG [Exclusion Theophylline B GF 28] | 0.0143 µM | 0.0204 µM | – | 0.0145 µM | –
